Test results reported in article PMC3856898 (FEBS letters, 2013).
Several values for one entry are separate records, joined by “and”; a condition that tells them apart may be missing. Equal entries are not always repeated.

Key:
[1] = molecular target: T1, Nrp1 cytoplasmic domain (UniProt P97333 880-923); experiment: ITC
[2] = molecular target: T1, Nrp1 cytoplasmic domain; experiment: SPR

T1 sequence (P97333 880-923): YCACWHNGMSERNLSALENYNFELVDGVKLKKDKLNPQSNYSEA

Kd [1]: 12.1 µM and 12.9 µM
Kd [2]: 9.6 ± 1.2 µM
B1: FlnA repeats 23-24 (domain or fragment)
chain: GHGGDPGLVSAYGAGLEGGVTGNPAEFVVNTSNAGAGALSVTIDGPSKVKMDCQECPEGYRVTYTPMAPGSYLISIKYGGPYHIGGSPFKAKVTGPRLVSNHSLHETSSVFVDSLTKATCAPQHGAPGPGPADASKVVAKGLGLSKAYVGQKSSFTVDCSKAGNNMLLVGVHGPRTPCEEILVKHVGSRLYSVSYLLKDKGEYTLVVKWGDEHIPGSPYRVVVP
